test: soluble on expression in E. coli; label from the status in PepcDB or PDB records

**Q.** Which “soluble on expression in E. coli” value does the source give for “MSTLPPCPQCNSEYTYEDGALLVCPECAHEWSPNEAATASDDGKVIKDSVGNVLQDGDTITVIKDLKVKGSSLVVKVGTKVKNIRLVDGDHDIDCKIDGIGAMKLKSEFVRKV” here?
**A.** The value was “not soluble”.

**Q.** Which “soluble on expression in E. coli” value does the source give for “MSTPHTPKPGPRPGAVPGPRPGAHAARKVVAPNVSAMNQARAFGRVDDDGTVYLIRGGETKKIGSWQAGTPEEGLQHYIHRFEDLATEVALLESRLKSHPNDASHIKEKAGEIRDGLDDAAIIGDLDSLEKRLNSIIDGADSAGEKARELKQQLQEKAIEQKQKLVAEAEEIAEKSTDWKVAGDRIREILDEWKTIKGIDRKTDDELWKLYSRARDSFNRRRGSHFAELDRGRAAARRIKEDLVEKANILKESTDWNDTAHAFKELMNEWKAAGRAPRDVDDKLWAAFKGAQDYFFNARNAVNDQRDREFAANAEAKDALIDEYTPLIDPAQGLESAREKLRELQEKWEAIGYVPRNRVREYEEKIANLEKRVTEAADAQWRRTDPAAQARAAQFISKVEEFTAQAAEAEVKGNTKKAEQLRAQAQQWQEWADAAINAVENR” here?
**A.** Its value is “not soluble”.

**Q.** With “MSTPSVHCLKPSPLHLPSGIPGSPGRQRRHTLPANEFRCLTPEDAAGVFEIEREAFISVSGNCPLNLDEVQHFLTLCPELSLGWFVEGRLVAFIIGSLWDEERLTQESLALHRPRGHSAHLHALAVHRSFRQQGKGSVLLWRYLHHVGAQPAVRRAVLMCEDALVPFYQRFGFHPAGPCAIVVGSLTFTEMHCSLRGHAALRRNSDR” as the sequence, how does the “soluble on expression in E. coli” value read?
**A.** The value was “soluble”.

**Q.** Which “soluble on expression in E. coli” value does the source give for “MSTPTPKVGFVSLGCPKALVDSERILTQLRMEGYEVVPTYEDADVVVVNTCGFIDSAKAESLEVIGEAIAENGKVIVTGCMGVEEHAIRDVHPSVLAVTGPQQYEQVVTAVHEVVPPKTEHNPLVDLVPPQGVKLTPRHYAYLKISEGCNHSCSFCIIPSMRGKLVSRPVGDVLSEAERLVKAGVKELLVISQDTSAYGVDLKYKTDFWNGQPVKTRMKELCEALSSMGVWVRLHYVYPYPNVDDVIPLMAAGKLLPYLDIPFQHASPKVLKAMKRPAFEDKTLARIKQWREICPELTIRSTFIVGFPGETEEDFQYLLDWLTEAQLDRVGCFQYSPVEGAPANELGLEPVPDEVKQDRWERFMAHQQAISAARLQLKVGKEIEVLIDEVDEQGAVGRSWADAPEIDGNVFVDSDELKPGDKVRVRITDADEYDLWAELVLEHHHHHH” here?
**A.** The value was “soluble”.

**Q.** For “MSTQNEESEESARRPQSISHLARVEVEEPARKMRLMFGEKQVVFIRSDGLRSRVVRENMKKKLSQEIEKKEDLDTDSPNLTKVIDDVASGATGSSSLPSSSTESYSTSSSSSSSSSDLNSAYSSTSEPQATSSSAPESSTNSSASPEIKGNRNYHPPREFHGASTMVSHKRRWTYQTACDINAAEQSGDSEMYYIAHPLLPMPRGSGRNEVSTATRMNYAGQQIDNRKFRGQSKAVNQFANTESVTCEKCGMRYFFESIQMQERISYLLPPNEEDLPIALFECPVCKITTKVK”, which “soluble on expression in E. coli” value is on record?
**A.** Its value is “not soluble”.

**Q.** With “MSTRNSRSELEKTAVQLFRKLGTRTVLFHQAAAQALGLFPTDLKSADILNEAGPMTAGELGKKTGLSTGSVTALVDRLEKAGVCGSWKRTPNDRRRVVIVPLTASKKHIKDLFRPLSESTMDLCREYTEEELELIFSFVGKAADIMEEELERLKQ” as the sequence, how does the “soluble on expression in E. coli” value read?
**A.** The value was “not soluble”.

**Q.** For “MSTRTEAVKAYLLDLQDRICTALEQEDGNAHFVEDAWTRPAGGGGRTRVVENGAVIEKGGVNFSHVFGSNLPPSASAHRPELAGRGFEALGVSLVIHPHSPHVPTSHANVRFFIAEKEGEEPVWWFGGGFDLTPYYGVEEDCVHWHRVAERACAPFGDDVYPRYKAWCDSYFHLKHRDEPRGIGGLFFDDVNQWDFDTSFAFIRAIGDAFINAYLPIVRRRKAAAYTVQQREFQEFRRGRYVEFNLVYDRGTLFGLQSGGRTESILMSLPPQVRWGYDWKAAPGSEEARLTDYFLTDRDWLADNAAALEHHHHHH”, which “soluble on expression in E. coli” value is on record?
**A.** The value was “not soluble”.

**Q.** Which “soluble on expression in E. coli” value does the source give for “MSTTIRFLRIVTSRAMSSSWSCNKCTFLNSASQKLNCMICLAPVSLPSLSPPPPSLSISANDEAKWACKACTFLNTYKNSICDVCGTRSPTSSLLGFQDLTDSGLESNDADSSVGSVFFPLRRCIKRKAMDDDVVEVDGASVVCSESQGVMKKNKEIETKGVASDSGTPLTCLKILSYNVWFREDLELNLRMRAIGHLIQLHSPHLICFQEVTPEIYDIFRKSNWWKAYSCSVSVDVAVSRGYYCMLLSKLGVKSFSSKSFGNSIMGRELSIAEVEVPGRKPLVFATSHLESPCPGPPKWDQMFSRERVEQAKEAIEILRPNANVIFGGDMNWCDKLDGKFPLPDKWVDVWEVLKPGDLGFTYDTKANPMLSGNRALQKRLDRILCRLDDYKLGGIEMVGKEAIPGLSYVKEKKVRGDIKKLELPVLPSDHFGLLVTLSPK” here?
**A.** Its value is “soluble”.

**Q.** For “MSTVLGTFKRMNEGWTQWPSYGHAFGVRLHKLRRLRGLTQDGLAEIANLSRNQISNLERNENSATKSSDPTMSTIYRLARALHVPPAALMPAVGDYVTDICQDTGHELPIDIAWPTSSQDTQKFSIQYRYRYWDEQSPLFDDEDWDDDHADDPDFGIAVMPETSDNNDADTTKGGDDTEDRGDVDKRDDDPLA”, which “soluble on expression in E. coli” value is on record?
**A.** The value was “not soluble”.

**Q.** Which “soluble on expression in E. coli” value does the source give for “MSVAIDHDQTAKWDWPFQKGDGVVKVLDYEDHFEVGLEAHNFLPNEIDVKNIGEFLEIHMAHTTKDDKFGSITRSITRCYRLPKGTDPATIKSKLDGSGILHISGNKKK” here?
**A.** Its value is “not soluble”.

**Q.** For “MSVASNRDAVVTARRRFFGEGRSVDGMLAAPILRSWQRCAGQGLDASRSPLVEPPTARELREFQERHDRLGRLARPELNALQGDARLTGSVVILTDAAGVVLDMIGSDEFAGRAAQVALRPGVSWSEADTGTNAIGTALVERQPIAVHGAEHFFERHRILACAAAPLIDPRGVVAGALDMTGPAAIRHVHALGLMRLAAEQIEHRFFTEGFEHCTMLRLHTDRALLGTPREGVLAFADGVLVGANRHGLDLMNLDWPALDLARLETLLPGVRPSDQIQMLRGPRGTRLWGRLVDPLRRSPRAPAASMPAAVPAAPAGEVEPILDAEMMAQLSRTVRLVEAGIPVLLLGETGSGKDVFARRVHAESARRNKPFVPVNCAALPEGLIESELFGYEAGAFTGARRQGAPGLLRQADGGVLFLDEIGDMPLSLQSRLLRVLQDKQISPLGGGRPVPVDFALICATHQPLGTLLAAGAFRQDLYFRIAQYVVERPPVRHHPDRLALVRTLWRQLGGEDAGVQLSAEVERVLAAYNWPGNYRQLVGTLRALLVLGEPGHPVEVAALPAEITAAAGAVESQVSEMLPGTSLAEQTRSVLQAALDASGGNVSRAARRLGIDRSTYYRRLLKDKDRGR”, which “soluble on expression in E. coli” value is on record?
**A.** The value was “not soluble”.

**Q.** Which “soluble on expression in E. coli” value does the source give for “MSVIDIHCHTAGVGAGGSGCFISTRLRESWRYRFYLASFGVTDAELEREGDGLVLRRLAERLAVSTRVQAAVVLALDGAIDSRGNLDQTRTELFIPNDFLSGQCRRYPNLLFGASVNPLRPDALDRLDAAAAASAVLVKWLPSIQGTDPADRRLVPFYRRLAELGLPLLTHTGEEQSFTRADNSLSDPNRLRLPLDEGVTVIAAHCATSGRSEGQRNRHRLLALFAAYPNLHADISSLTQVNRLGHLQWVLKHRELHERLLYGTDMPLPATALTSPWFHLFSLGPFAARRLAAIRNPWDRDVALKLALGMPEQILHNAAGLLRLALEHHHHHH” here?
**A.** Its value is “not soluble”.

**Q.** With “MSVKQEQCLIKVVSYDSNWPVQFEQEAERIKKALGSNCIEIHHIGSTSVPDLVAKPVIDMIPVVLDISKVDGANAAIRALGYEAKGEYGIPFRRYFQKGDNRLTHHAHVFELGNPEIERHLKFRDWMRMHPKDREAYARLKQELARRYSDDITAYCLGKEDFIATIDKKAGFNGLRMVKALTTREWDKVRHFRQFYFFDKAGLSDPYTWTFEHNAHVHFVLFQGSEITGYAHLQLWSHNRAALRIIVIDELKRNHQYGTRFLALCEKWLKSQGYQSLHVESSPDALKFYRNNGYIDMPFDDPDGYEGDPRDTAVGKIL” as the sequence, how does the “soluble on expression in E. coli” value read?
**A.** The value was “not soluble”.

**Q.** For “MSVYTTAQLLAVNEKKFKFDPLFLRIFFRETYPFSTEKVYLSQIPGLVNMALYVSPIVSGKVIRSRGGSTSEFTPGYVKPKHEVNPLMMTLRLPDEDPQNVADPVYRRRRIILQNMKDEELAIAQVEEKQAVSAVLSGKYTMTGEAFEPVEVDMGRSAGNNIVQAGAAAWSTRDKETYDPTDDIEAYALNARGVVNIIVFDPKGWALFRSFKAVEKKLDTRRGSNSELETAVKDLGMAVSYKGMFGDVAIVVYSGQYVENDVKKNYLPDLTMVLGNTQARGLRTYGCILDADAQREGIDAST”, which “soluble on expression in E. coli” value is on record?
**A.** The value was “not soluble”.

Source: the DeepSol protein solubility set
